Measured values: paper PMC2563037
Non-standard residues stand in square brackets, D forms with d. No end group written: not given here. Abu = CC[C@H](N)C(=O)O

Biological target: H-2K^b (MHC class I heavy chain with its light chain, the 'heterodimer' of the crystal structures) (mouse | not stated)
Assay: circular dichroism thermal melt; far-UV CD of the H-2K^b/peptide-Aba complexes, thermostatted cuvette, 30 to 90°C

Binder	Tm of the complex
R[Abu]QIFANI	54 °C
R[Abu]YIFANI	64 °C
